The values below come from patent publication US20140056907A1 (Regeneron, published 2014).

The target of one test is T1, human ASIC3 (human, UniProt Q9UHC3 1-531).
T1 construct: whole, on cells; Expressed on 3T3 cells (3T3/hASIC3) or HEK293 cells (HEK/hASIC3-QCells); also called hASIC3
T1 sequence (looked up): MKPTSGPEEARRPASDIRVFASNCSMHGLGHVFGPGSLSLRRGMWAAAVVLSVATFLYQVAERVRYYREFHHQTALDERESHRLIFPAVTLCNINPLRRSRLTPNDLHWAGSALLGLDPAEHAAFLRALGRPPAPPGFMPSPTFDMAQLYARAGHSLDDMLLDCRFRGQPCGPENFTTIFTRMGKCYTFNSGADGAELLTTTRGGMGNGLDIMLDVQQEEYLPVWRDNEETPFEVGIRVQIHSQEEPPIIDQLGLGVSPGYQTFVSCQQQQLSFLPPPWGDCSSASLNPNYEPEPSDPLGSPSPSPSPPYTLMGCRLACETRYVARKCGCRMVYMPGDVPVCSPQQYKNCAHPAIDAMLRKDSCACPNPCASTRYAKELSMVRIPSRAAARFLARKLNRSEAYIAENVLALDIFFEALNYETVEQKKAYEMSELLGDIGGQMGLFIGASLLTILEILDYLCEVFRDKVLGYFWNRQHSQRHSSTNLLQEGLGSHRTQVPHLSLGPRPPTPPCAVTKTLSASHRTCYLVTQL
Description: FACS, 3T3/hASIC3 cells, 10 nM antibody. The source says:
(§1) For these experiments, four cell lines were constructed: (a) a mouse fibroblast 3T3 cell line stably transfected to overexpress full length human ASIC3 (3T3/hASIC3; amino acids 1-531 of NCBI accession number NP_{—}004760.1), (b) a 3T3 cell line stably transfected to co-express full length human ASIC1a and human ASIC3 (3T3/hASIC1/3; amino acids 1-528 of NCBI accession number NP_{—}001086.2 and amino acids 1-531 of NCBI accession number NP_{—}004760.1), (c) […] a stably transfected 3T3 cell line expressing the full-length mouse ASIC3 channel (3T3/mASIC3; amino acids 1-530 of NCBI accession number NP_{—}892045.2), and (d) a 3T3 cell line stably transfected to co-express full length mouse ASIC1a and mouse ASIC3 (3T3/mASIC1/3; amino acids 1-526 of NCBI accession number NP_{—}033727 and amino acids 1-530 of NCBI accession number NP_{—}892045.2). Antibody binding was determined using flow cytometry (FACS).
(§2) To perform the FACS binding experiments, adherent cells were collected with cold Millipore Accutase 3-5 minutes, spun and resuspended in ice-cold FACS buffer (PBS, 2% HI-FBS and 0.09% Na-azide). Anti-ASIC1 antibody at final concentrations of 10 nM was added for 20-30 minutes on ice. Cells were washed with 900 μL ice-cold FACS buffer, spun, and resuspended in 100 μL ice-cold FACS buffer. A secondary antibody which recognizes human Fc (Jackson Immuno Research, #109-136-098) and is conjugated to allophycocyanin, was then added to the cell mixture at a final concentration of 2.5 ug/mL. After incubating for 20 minutes on ice, the cells were washed and resuspended in FACS buffer, then sorted and analyzed on a flow cytometer (FACSCanto II, BD Biosciences, San Jose, Calif.) to determine relative binding by the candidate antibodies to the tested cell lines. Histograms of cells stained with anti-ASIC1 antibodies were compared with those of cells stained with secondary antibody alone. Percentage of ASIC1 signal over secondary antibody alone was calculated using FlowJo software (Tree Star, Ashland, Oreg.).

Test [1] concerns the target T2, human ASIC1/ASIC3 channels (co-expressed human ASIC1a and human ASIC3) (human, UniProt Q9UHC3 1-531).
T2 construct: whole, on cells; 3T3 cells co-expressing both subunits; also called 3T3/hASIC1/3; 3T3-hASIC1/ASIC3
T2 sequence 1: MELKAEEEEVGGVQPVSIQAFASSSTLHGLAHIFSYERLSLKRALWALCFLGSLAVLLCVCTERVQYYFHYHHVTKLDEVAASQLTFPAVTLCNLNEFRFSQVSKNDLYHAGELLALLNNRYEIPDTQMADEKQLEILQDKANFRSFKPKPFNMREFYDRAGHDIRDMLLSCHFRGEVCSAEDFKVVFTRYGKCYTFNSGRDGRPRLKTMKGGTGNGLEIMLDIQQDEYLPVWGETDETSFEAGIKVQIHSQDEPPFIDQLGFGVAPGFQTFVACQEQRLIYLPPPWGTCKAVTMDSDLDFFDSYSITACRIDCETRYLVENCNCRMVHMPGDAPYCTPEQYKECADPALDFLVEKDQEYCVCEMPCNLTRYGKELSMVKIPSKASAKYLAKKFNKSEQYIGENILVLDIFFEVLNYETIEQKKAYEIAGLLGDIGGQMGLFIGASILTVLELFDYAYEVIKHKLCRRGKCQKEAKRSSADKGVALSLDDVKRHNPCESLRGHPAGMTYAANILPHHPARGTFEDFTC
T2 sequence 2: T1 sequence (looked up)
Description: FACS, 3T3/hASIC1/3 cells, 10 nM antibody.
Description: as §1, §2

A further test concerns the target T3, human ASIC1 (human, UniProt P78348 1-528).
T3 sequence: T2 sequence 1
Nature of the test: cell-based or functional assay.

B1: H3M7102N (antibody, V domains shown)
VH: EVQLLASGGGLVQPGGSLRLSCAASGFTFSSFAMSWVRQAPGKGLEWVSGISGSGGSTYYADSVKGRFTISRDNSKNTLYLQMNSLRAEDTAAYYCAKEAYKWQPWGQGIRVTVSS
VL: DIQMTQSPSTLSASVGDRVSITCRASQSISSWLAWYQQKPGKAPKLLIYKASNLDSGVPSRFSGSGSGTDFTLTISSLQPDDFATYYCQQYNSYSYTFGQGTKLEIK
notes: Chimeric: human variable, mouse constant domains; H3M prefix marks the Fc, isotype not spelled out
Turning to B1, the binding result (in the test with human ASIC3; in test [1]) was “binds” in each case. The “Current inhibition (%) at 100 nM antibody, Q-Patch, pH 6.0” value with human ASIC1 came out at 100%.

B2: H3M6726N (antibody, V domains shown)
VH: EVQLLESGGVLVQPGGSLRLSCAASGFNFNNYDMSWVRQAPGKGLEWVSVISASGRNTYYADSVKGRFTISRDNSKISLYLQMNSLRPEDTAVYYCAKDHLVHYYYGMDVWGQGTTVTVSS
VL: DIMMTQSPLSLSVTPGEPASISCRSSQSLLHSNGYNYLDWYLQKSGQSPHLLIYLGSNRASGVPDRFSGSGSGTDFTLKISRVEAEDGGVYYCMQALQTPRTFGQGTKVEIK
notes: as for B1
On to B2, for which the binding result (with human ASIC3; in test [1]) was “binds” throughout. Further, the “Current inhibition (%) at 100 nM antibody, Q-Patch, pH 6.0” value with human ASIC1 is 85%.
